Data on one molecule can be found in paper PMC5587394 (Structure (London, England : 1993), 2017).

This assay has as its target FGF9^WT (human FGF9, residues 35-208) (human, UniProt P31371 35-208). The assay can be described thus: SPR. Background: In SPR one partner is held on a chip, and binding of the other changes the refractive index at the surface.

B1: FGFR1c^ecto/WT (human FGFR1c ectodomain, residues 141-365) (domain or fragment)
chain: TDNTKPNRMPVAPYWTSPEKMEKKLHAVPAAKTVKFKCPSSGTPNPTLRWLKNGKEFKPDHRIGGYKVRYATWSIIMDSVVPSDKGNYTCIVENEYGSINHTYQLDVVERSPHRPILQAGLPANKTVALGSNVEFMCKVYSDPQPHIQWLKHIEVNGSKIGPDNLPYVQILKTAGVNTTDKEMEVLHLRNVSFEDAGEYTCLAGNSIGLSHHSAWLTVLEALEER
As for B1, the binding result is “binds”.
